± gives the uncertainty stated by the source.
B1: Nanos homolog 2, residues 63 to 115; numbered along this chain, P60321 (parent)
chain: CNFCKHNGESRHVYSSHQLKTPDGVVVCPILRHYVCPVCGATGDQAHTLKYCP

Variants of: B1
Assay: abundance fitness (aPCA) (normalised: wild type 0, dead -1); higher = more abundant; growth selection in yeast, the domain comes from the species named
Details: Homo sapiens

Variant	abundance fitness
R11P	0.172 ± 0.16
R11N	-0.131 ± 0.11
R11C	-0.497 ± 0.19
R11T	0.08 ± 0.13
R11G	-0.084 ± 0.067
R11M	-0.156 ± 0.12
R11I	0.063 ± 0.12
R11K	-0.317 ± 0.17
R11W	-0.408 ± 0.093
R11V	-0.007 ± 0.091
R11Q	-0.077 ± 0.18
R11F	0.07 ± 0.16
R11L	-0.049 ± 0.077
R11A	-0.034 ± 0.081
R11D	0.167 ± 0.095
R11H	-0.039 ± 0.19
R11S	-0.047 ± 0.1
N2W	-0.759 ± 0.08
N2Y	-0.254 ± 0.12
N2R	-0.768 ± 0.1
N2T	-0.408 ± 0.087
N2V	-0.819 ± 0.084
H12E	0.226 ± 0.063
H12I	-0.043 ± 0.16

Variant	abundance fitness
H12M	-0.012 ± 0.078
H12C	-0.06 ± 0.066
H12D	0.188 ± 0.085
H12F	-0.031 ± 0.14
H12G	0.056 ± 0.084
H12L	-0.036 ± 0.11
H12K	0.096 ± 0.14
N7D	-0.513 ± 0.1
N7K	0.021 ± 0.085
N7S	-0.054 ± 0.061
N7F	-0.241 ± 0.11
N7I	-0.432 ± 0.17
N7M	0.173 ± 0.12
N7G	-0.144 ± 0.1
N7V	-0.364 ± 0.073
N7P	-0.764 ± 0.093
N7W	-0.47 ± 0.056
N7C	-0.316 ± 0.097
N7H	-0.036 ± 0.13
N7A	-0.213 ± 0.11
N7Q	-0.263 ± 0.11
N7L	-0.311 ± 0.062
N7T	-0.122 ± 0.1
N7R	-0.036 ± 0.083

Variant	abundance fitness
F3R	-0.848 ± 0.046
F3G	-1.2 ± 0.11
F3D	-0.701 ± 0.1
F3N	-0.877 ± 0.27
F3T	-0.988 ± 0.19
F3S	-0.623 ± 0.047
F3H	-0.502 ± 0.13
F3C	-0.632 ± 0.084
F3V	-1.01 ± 0.1
F3P	-1.3 ± 0.097
F3L	-0.576 ± 0.075
F3I	-0.399 ± 0.25
F3Q	-0.933 ± 0.094
F3W	-0.709 ± 0.13
F3K	-1.44 ± 0.43
F3E	-1.22 ± 0.25
F3Y	-0.117 ± 0.11
F3M	-1.06 ± 0.21
K5A	-0.245 ± 0.057
K5I	-0.054 ± 0.11
K5Q	-0.281 ± 0.11
K5H	-0.3 ± 0.12
K5Y	-0.145 ± 0.08
K5P	-0.691 ± 0.048

Variant	abundance fitness
K5M	-0.165 ± 0.064
K5E	-0.24 ± 0.083
K5S	-0.313 ± 0.048
K5T	-0.456 ± 0.097
K5L	-0.144 ± 0.046
K5C	-0.249 ± 0.081
K5G	-0.699 ± 0.05
K5W	-0.4 ± 0.054
K5F	-0.305 ± 0.11
K5N	-0.541 ± 0.12
K5D	-0.401 ± 0.097
G8F	-0.202 ± 0.12
G8H	-0.092 ± 0.059
G8V	-0.306 ± 0.085
G8Q	-0.084 ± 0.098
G8K	-0.174 ± 0.13
G8P	-0.343 ± 0.1
G8W	-0.342 ± 0.12
G8N	-0.161 ± 0.11
G8L	-0.23 ± 0.065
G8M	-0.137 ± 0.069
G8C	-0.313 ± 0.097
G8D	-0.223 ± 0.096
G8R	-0.063 ± 0.076

Variant	abundance fitness
G8T	-0.359 ± 0.1
G8A	-0.196 ± 0.075
G8E	-0.119 ± 0.11
G8S	-0.08 ± 0.077
S10N	-0.198 ± 0.14
S10H	0.022 ± 0.08
S10G	0.012 ± 0.065
S10P	0.02 ± 0.078
S10A	-0.172 ± 0.1
S10C	-0.321 ± 0.099
S10E	0.025 ± 0.1
S10L	-0.194 ± 0.059
S10T	-0.248 ± 0.12
S10Q	0.066 ± 0.11
S10D	-0.158 ± 0.14
S10I	-0.149 ± 0.069
S10K	0.079 ± 0.11
S10V	-0.296 ± 0.083
S10W	-0.442 ± 0.086
S10R	0.003 ± 0.076
S10Y	-0.328 ± 0.16
S10F	-0.251 ± 0.082
H6F	-0.147 ± 0.11
H6Q	0.011 ± 0.12

Variant	abundance fitness
H6S	0.039 ± 0.072
H6T	-0.091 ± 0.094
H6R	0.078 ± 0.05
H6I	-0.062 ± 0.081
H6A	-0.011 ± 0.07
H6K	0.158 ± 0.059
H6W	-0.451 ± 0.11
H6G	-0.011 ± 0.056
H6P	-0.277 ± 0.12
H6N	-0.003 ± 0.11
H6C	-0.099 ± 0.11
H6D	-0.093 ± 0.1
H6E	-0.027 ± 0.091
H6L	-0.096 ± 0.088
H6M	-0.047 ± 0.1
C4V	-0.952 ± 0.088
C4T	-0.879 ± 0.088
C4K	-0.63 ± 0.19
C4L	-1 ± 0.15
C4P	-0.693 ± 0.067
C4H	-0.688 ± 0.22
C4R	-0.933 ± 0.051
C4A	-1.06 ± 0.11
C4N	-0.694 ± 0.079

Variant	abundance fitness
C4E	-0.867 ± 0.13
C4Q	-0.959 ± 0.21
C4Y	-0.874 ± 0.16
C4S	-0.635 ± 0.06
C4F	-0.423 ± 0.12
C4M	-1 ± 0.22
C4G	-0.802 ± 0.05
E9V	-0.189 ± 0.061
E9R	-0.125 ± 0.066
E9W	-0.495 ± 0.15
E9C	0.065 ± 0.11
E9S	-0.26 ± 0.089
E9K	-0.007 ± 0.079
E9A	-0.103 ± 0.061
E9M	-0.116 ± 0.073
E9N	-0.153 ± 0.1
E9T	-0.154 ± 0.087
E9P	-0.25 ± 0.1
E9Q	-0.116 ± 0.14
E9D	-0.298 ± 0.1
E9F	-0.259 ± 0.072
E9G	-0.274 ± 0.056
E9L	-0.277 ± 0.079

Reference: the Human Domainome abundance scans (Beltran et al. 2025)
